In patent US20250152724A1, “ANTIBODY CONJUGATES SPECIFIC FOR MUCIN-1 AND METHODS OF USE THEREOF” (R.P. Scherer Technologies, LLC, priority 2022, published 2025):

Columns and labels:
[1] = target: recombinant 20mer MUC1 glycosylated-biotin (Homo sapiens, UniProt P15941); test: MUC1 ELISA; format: binding; settings: FIGS. 2A-2C
Procedure: (§1) MUC1 ELISA: Antigens were coated directly on a Streptavidin (Pierce, 15500) or Maxisorp (VWR, 62409-024) 96-well plate at 100 ng/well in PBS. Coated plates were incubated at 4° C. overnight. The plates were blocked with casein blocking buffer (Thermo Fisher, 37528) and washed with PBS-Tween-20. Antibodies were serially diluted in PBS, added to the coated wells and incubated for 1 h at room temperature with shaking. To test for stickiness, antibodies were also added to uncoated, blocked wells. Peroxidase (HRP)-conjugated anti-Fc secondary (Jackson Immunoresearch, #109-035-098) was used for detection, followed by a […] substrate (Thermo Fisher, 34028) and H2SO4 quench. Absorbance was read at 450 nm on a Molecular Devices plate reader.
(§2) 20mer MUC1 glycosylated-biotin refers to a peptide comprising the sequence […] (SEQ ID NO:26) with Tn (GalNac) antigen or sialyl Tn (Neu5Acα2-6GalNAc) antigen modifications on some of the S/T residues, where biotin in conjugated to the N-terminus. 60mer MUC1 non-glycosylated-biotin refers to a peptide comprising the sequence […] (SEQ ID NO:27), where biotin in conjugated to the N-terminus. Decoy peptide refers to a peptide comprising the sequence […] (SEQ ID NO:28), with Tn (GalNac) antigen or sialyl Tn (Neu5Acα2-6GalNAc) antigen modifications on some of the S/T residues.

decoy peptide = test: MUC1 ELISA; format: binding; settings: FIGS. 2A-2C
Procedure: as §1, §2

[2] = target: recombinant 60mer MUC1 non-glycosylated-biotin (Homo sapiens, UniProt P15941); test: MUC1 ELISA; format: binding; settings: FIGS. 2A-2C
Procedure: as §1, §2

[3] = analytical size exclusion chromatography (SEC) to determine aggregation; format: physicochemical; settings: unconjugated antibodies; mobile phase 300 mM NaCl, 25 mM sodium phosphate pH 6.8
Procedure: SEC HPLC: To determine aggregation, samples were analyzed using analytical size exclusion chromatography (SEC; Tosoh #08541) with a mobile phase of 300 mM NaCl, 25 mM sodium phosphate pH 6.8.
Methods. Antibodies (15 mg/mL) bearing one aldehyde tag were conjugated to linker-payloads at 1.1 mM, respectively. Reactions proceeded for 72 h at 37° C. in 20 mM sodium citrate, 50 mM NaCl pH 5.5 (20/50 buffer) containing 0.85-2.5% DMA. After conjugation, free drug was removed using a 30 kD MWCO 0.5 mL Amicon spin concentrator. Samples were added to the spin concentrator, centrifuged at 15,000×g for 7 min, then diluted with 450 μL 20 mM sodium citrate, 50 mM NaCl pH 5.5 and centrifuged again. The process was repeated 10 times. To determine the DAR of the final product, ADCs were examined by analytical chromatography using hydrophobic interaction (HIC) (Tosoh #14947) or PLRP-RP (Agilent PL1912-1802 1000A, 8 μm, 50×2.1 mm) columns. HIC analysis used mobile phase A: 1.5 M ammonium sulfate, 25 mM sodium phosphate pH 7.0, and mobile phase B: 25% isopropanol, 18.75 mM sodium phosphate pH 7.0. […] To determine aggregation, samples were analyzed using analytical size exclusion chromatography (SEC; Tosoh #08541) with a mobile phase of 300 mM NaCl, 25 mM sodium phosphate pH 6.8 with 5% isopropanol.

Chain of recombinant 60mer MUC1 non-glycosylated-biotin (P15941 138-197): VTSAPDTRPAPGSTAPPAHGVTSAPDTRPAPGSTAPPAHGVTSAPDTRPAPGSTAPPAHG
Chain of recombinant 20mer MUC1 glycosylated-biotin (P15941 138-157): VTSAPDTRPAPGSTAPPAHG
Chain of decoy peptide (as listed by the source): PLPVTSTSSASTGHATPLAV

binding to recombinant 20mer MUC1 glycosylated-biotin as assessed by ELISA [1]	binding to decoy peptide as assessed by ELISA (decoy peptide)	binding to recombinant 60mer MUC1 non-glycosylated-biotin as assessed by ELISA [2]	Molecule	monomeric as determined by SEC [3]
bind	not	not	MUC1 H02: anti-MUC1 monoclonal antibody; VH SEQ ID NO:1, VL SEQ ID NO:4 (antibody, V domains shown) VH: EVQLVQSGAEVKKPGATVKISCKVSGYTFTDHTMHWIKQRPGKGLEWMGYFYPRDDSTNYNEKFKGRVTLTADKSTDTAYMELSSLRSEDTAVYYCARGLRYALDYWGQGTLVTVSS VL: EIVLTQSPATLSLSPGERATLSCRASSSVSSSYLYWYQQKPGQAPRLWIIGTSNLASGVPARFSGSGSGTDYTLTISSLEPEDAAVYYCHQYSWSPPTFGQGTKLEIK	more than 98%
bind	not	not	MUC1 gB06: anti-MUC1 monoclonal antibody; VH SEQ ID NO:1, VL SEQ ID NO:2 (antibody, V domains shown) VH: EVQLVQSGAEVKKPGATVKISCKVSGYTFTDHTMHWIKQRPGKGLEWMGYFYPRDDSTNYNEKFKGRVTLTADKSTDTAYMELSSLRSEDTAVYYCARGLRYALDYWGQGTLVTVSS VL: EIVLTQSPATLSLSPGERATLSCRASSSVSSSYLYWYQQKPGQAPRLWIYGTSNLASGVPARFSGSGSGTDYTLTISSLEPEDAAVYYCHQYAWSPPTFGQGTKLEIK	–
bind	not	not	MUC1 G12: anti-MUC1 monoclonal antibody; VH SEQ ID NO:1, VL SEQ ID NO:3 (antibody, V domains shown) VH: EVQLVQSGAEVKKPGATVKISCKVSGYTFTDHTMHWIKQRPGKGLEWMGYFYPRDDSTNYNEKFKGRVTLTADKSTDTAYMELSSLRSEDTAVYYCARGLRYALDYWGQGTLVTVSS VL: EIVLTQSPATLSLSPGERATLSCRASSSVGSSNLYWYQQKPGQAPRLWIYRSTKLASGVPARFSGSGSGTDYTLTISSLEPEDAAVYYCHQYRWSPPTFGQGTKLEIK	–
